Experimental data published in US20090166224A1.

Tests used:
[1] = target: Pregnancy zone protein in fucosidase-treated serum (human) (UniProt P20742); test: fucosidase-treated serum on M-LAC column, displacer fraction, extracted ion chromatogram of peptide … (so in the source)
[2] = target: Pregnancy zone protein in fucosidase-treated serum (human) (UniProt P20742); test: fucosidase-treated serum on M-LAC column, displacer fraction, LC-MS/MS; smaller rank = more abundant

Chain of Pregnancy zone protein in fucosidase-treated serum (human) (P20742 26-1482 limits assumed): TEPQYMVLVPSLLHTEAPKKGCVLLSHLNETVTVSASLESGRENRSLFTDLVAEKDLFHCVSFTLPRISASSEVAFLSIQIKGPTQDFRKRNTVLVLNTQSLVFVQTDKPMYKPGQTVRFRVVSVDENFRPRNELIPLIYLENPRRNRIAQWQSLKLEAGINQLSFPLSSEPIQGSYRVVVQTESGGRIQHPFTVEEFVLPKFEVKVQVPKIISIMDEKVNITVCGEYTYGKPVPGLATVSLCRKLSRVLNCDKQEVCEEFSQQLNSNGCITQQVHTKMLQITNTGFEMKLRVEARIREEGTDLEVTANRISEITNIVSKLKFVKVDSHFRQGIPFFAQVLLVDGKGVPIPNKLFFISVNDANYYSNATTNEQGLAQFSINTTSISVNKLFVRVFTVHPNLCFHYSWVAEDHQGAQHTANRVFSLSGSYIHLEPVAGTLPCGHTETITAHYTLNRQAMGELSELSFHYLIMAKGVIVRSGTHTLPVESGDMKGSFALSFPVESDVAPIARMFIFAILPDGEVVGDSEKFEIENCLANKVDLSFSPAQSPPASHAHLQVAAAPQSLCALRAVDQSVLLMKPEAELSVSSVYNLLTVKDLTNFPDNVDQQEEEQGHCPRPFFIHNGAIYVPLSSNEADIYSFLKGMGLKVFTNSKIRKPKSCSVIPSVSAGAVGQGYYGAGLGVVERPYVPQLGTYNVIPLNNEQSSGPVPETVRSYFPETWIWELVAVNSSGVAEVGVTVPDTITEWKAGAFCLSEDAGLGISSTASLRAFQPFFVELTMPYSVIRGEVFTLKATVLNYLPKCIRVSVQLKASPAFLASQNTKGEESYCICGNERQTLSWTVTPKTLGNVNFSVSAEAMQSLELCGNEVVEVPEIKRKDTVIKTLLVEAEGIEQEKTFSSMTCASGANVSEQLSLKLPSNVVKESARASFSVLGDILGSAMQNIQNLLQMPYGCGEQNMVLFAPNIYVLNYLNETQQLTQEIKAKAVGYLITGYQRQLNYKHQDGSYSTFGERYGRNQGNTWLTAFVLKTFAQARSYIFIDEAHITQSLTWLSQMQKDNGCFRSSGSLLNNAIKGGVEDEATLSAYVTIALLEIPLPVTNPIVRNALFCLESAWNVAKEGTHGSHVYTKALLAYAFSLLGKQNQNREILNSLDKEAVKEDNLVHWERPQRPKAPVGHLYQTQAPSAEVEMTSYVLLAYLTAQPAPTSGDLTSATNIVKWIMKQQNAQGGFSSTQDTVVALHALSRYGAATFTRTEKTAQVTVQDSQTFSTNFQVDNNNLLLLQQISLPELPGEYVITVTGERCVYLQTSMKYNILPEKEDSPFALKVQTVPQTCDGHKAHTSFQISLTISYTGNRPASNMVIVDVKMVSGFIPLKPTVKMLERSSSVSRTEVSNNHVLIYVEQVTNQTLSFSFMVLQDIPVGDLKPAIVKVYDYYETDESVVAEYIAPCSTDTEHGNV

peptide peak area in displacer fraction [1]: 0 counts
SEQUEST rank in displacer fraction [2]: 6
B1: Jacalin lectin, agarose-bound (protein)
chain 1: GKAFDDGAFTGIREINLSYNKETAIGDFQVVYDLNGSPYVGQNHKSFITGFTPVKISLDFPSEYIMEVSGYTGNVSGYVVVRSLTFKTNKKTYGPYGVTSGTPFNLPIENGLIVGFKGSIGYWLDYFSMYLSL
chain 2: NEQSGKSQTVIVGSWGAKVS
modifications: immobilized on agarose
